Data from paper doi:10.1101/686782.

What was measured:
Assay in all cases: cryo-EM structure
[1] = biological target: V. mimicus FliPQR complex (FliP5Q4R1) (Vibrio mimicus)
[2] = biological target: V. mimicus FliP (Vibrio mimicus)
[3] = biological target: V. mimicus FliQ (Vibrio mimicus)

Substance V. mimicus FlhB (natural protein) has a stoichiometry N [1] of 1.

In the case of V. mimicus FliP (natural protein), the stoichiometry N [2] is reported as 5.

With V. mimicus FliQ (natural protein) the stoichiometry N [3] was 4.
